# B1: probe A1 (PADT-A 225-329) (dsDNA)
# DNA 1: TAACTTGCGCGGGTGTTTACACACCTAACCACTCCGGAGCTTCCATGCTTCATCCACGAGTCAGAGGGGCCTTTCCTCCAACCACCCTAGATCAGCATGAGCTAT
# DNA 2: ATAGCTCATGCTGATCTAGGGTGGTTGGAGGAAAGGCCCCTCTGACTCGTGGATGAAGCATGGAAGCTCCGGAGTGGTTAGGTGTGTAAACACCCGCGCAAGTTA
# B2: probe A2 (PADT-A 281-370) (dsDNA)
# DNA 1: ACAACAGACTGGTAAGGCACACGTGCTTCCACGAGATCCACTAACTTGCGCGGGTGTTTACACACCTAACCACTCCGGAGCTTCCATGCT
# DNA 2: AGCATGGAAGCTCCGGAGTGGTTAGGTGTGTAAACACCCGCGCAAGTTAGTGGATCTCGTGGAAGCACGTGTGCCTTACCAGTCTGTTGT
# B3: probe D2 (PADT-D 192-318) (dsDNA)
# DNA 1: GCTGGTGAGAAGGGCCAAACCAAAAAAAAACCAAACGAAATCACAGCGTACGATCTAACTAACCGTGTTGAATAGTCCCGTGACGTAGCCGCCGTAATGTGCAACAACCCACCATGGGATGGAGCAG
# DNA 2: CTGCTCCATCCCATGGTGGGTTGTTGCACATTACGGCGGCTACGTCACGGGACTATTCAACACGGTTAGTTAGATCGTACGCTGTGATTTCGTTTGGTTTTTTTTTGGTTTGGCCCTTCTCACCAGC
# Assays:
# PpMYB8 [1] = target: T1, PpMYB8 (Pinus pinaster, UniProt D7GLD4 1-534); assay: EMSA; EMSA buffer, salt, pH and temperature not given in material (electrophoresis as in Rueda-López et al. 2008); conditions: protein: recombinant; label: 5'-biotin
# PpMYB8 [2] = target: T1, PpMYB8; assay: EMSA; shift reduced by unlabeled probe; EMSA buffer, salt, pH and temperature not given in material (electrophoresis as in Rueda-López et al. 2008); conditions: protein: recombinant; label: 5'-biotin
# T1 sequence (D7GLD4 entry or part of it): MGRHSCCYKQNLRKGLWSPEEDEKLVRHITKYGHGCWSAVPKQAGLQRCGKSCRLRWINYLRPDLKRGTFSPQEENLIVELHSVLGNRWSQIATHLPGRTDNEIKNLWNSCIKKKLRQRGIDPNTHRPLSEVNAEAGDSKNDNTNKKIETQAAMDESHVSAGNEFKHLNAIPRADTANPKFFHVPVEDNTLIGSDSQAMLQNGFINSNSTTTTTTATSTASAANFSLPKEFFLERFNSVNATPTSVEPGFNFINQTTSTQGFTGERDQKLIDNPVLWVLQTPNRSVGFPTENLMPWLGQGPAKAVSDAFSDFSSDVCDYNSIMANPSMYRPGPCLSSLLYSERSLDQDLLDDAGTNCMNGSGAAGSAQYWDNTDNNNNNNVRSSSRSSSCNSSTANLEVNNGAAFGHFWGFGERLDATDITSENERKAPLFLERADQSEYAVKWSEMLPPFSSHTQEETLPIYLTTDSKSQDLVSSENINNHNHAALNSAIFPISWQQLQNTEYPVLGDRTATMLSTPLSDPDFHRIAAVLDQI
Binder,binding result (PpMYB8 [1]),binding result (PpMYB8 [2])
B1,no binding,–
B2,–,binds
B3,no binding,–

# From article PMC7260716, “Transcriptional analysis of arogenate dehydratase genes identifies a link between phenylalanine biosynthesis and lignin biosynthesis”
